Test results from article doi:10.1101/2022.05.18.492506, “A multi-domain connector links the outer membrane and cell wall in deep-branching bacteria” (bioRxiv, 2022).

B1: SlpA (Deinococcus radiodurans outer membrane protein) (natural protein, UniProt Q9RRB6 23-1167, looked up)
chain: APVSAPQVPALTDVPAGHWAKDAIDRLVSRGVILGYPDGTFRGTQNLTRYEAAIIIARLLDQMRDGETPAGMTAEDMTALQNAIQELAADLAALGVRVSDLEANAVSKDDFARLEARIEEVAAAGGEQGATEALQGQIDDLTARVDEYDALRADVDDNASSIAALNDLTVLLNQDILDLQDRVSAVEAAQADFVQRSDFDALGGRVTTVETRVETVNNSLTGRIAALERNAFSVKPSLTIGYSVSRTSRNFDVDRLFPLNADGTVANNAFTSGGIDTDTGAQRRDFGDFGNASDPVVAGAAGLYGFADGVSYTVYFTDGSTATFDGLNPADYKVPTGKVIDTTKGRNGFGFNNLARYKEGSTDIGISLGFDTSGQFSQVTSGTGGSLFSTAGRLQVNQIDLNFGLVTGLPSDAYVDTNGNGKKDDGEATGRGTYLGSGGTAAILRDPAGNVYRPVFFRFKNATTQFSVGNNPVIVTLGQQQKFYFSDYVFDNNYDGRGDGFTVTVDGSNVPVIGAWKPQIKGVYGSRSGLDGTAEAGYGVYYRGVRAQITPVGTLTAGIHYAQEGRDMFGAAQNTTSTPSDVTTYGADLHGKAFGVELHSEYATSRVRPNTANAAVQTSNAFYARVATRKDNLAFDLNTPAAKFGNDTFGVSLYDLNYRKIDAGYNNVAGISEYGYGSYSRTSAQNIAYNPDTGVTAPFANLDRQAYTDANNDGTSDRNADGTVVATNTKIGQMGFGVKAAANLGPVAIGGYYDTSTGANGDNANRMTEAGGSAKVAYSIFSLRGTYNTLDSNRPQIYRDAAGTQIIGDAKVRRYAVQADVTPGLGLFVGAYYRDVNVNGVRSTTDRGLLGRGYLASSFEPGVGNNAYRTGLRCADNNFGTGTRDIDGVGGVLNPAVNLDQSRTATCFTSYGVEAGHAGDNANALVKDLFFRVGYSRVYVPTTATATTGDFSGSVTYGDARYDRKVGVANVRLAGSFSTTNTQLDSRPAGTRGAVGLIVRTDPLENVPFRPQFNGQVGYYTADNRVAAGNYNANATKYGAGVVLNDFLLPQTKIGVRYDGYMAQNRQYTPFDGDGTQGYFSDANNNRRTNLNGVYVEGAYQDLIFSYGTYTLSQKDLNGVEYGSGINNGQPARGQTFKISYKVNF
notes: SlpA, Deinococcus radiodurans, UniProtKB Q9RRB6; Native protein from the source organism, no tags; Only residues 215-1167 are well resolved in the cryo-EM map; also called SlpA protein complex; SlpA porin; source: purified from D. radiodurans (ATCC BAA816): DDM extraction, HiTrap-Q, Superose 6 Increase
B2: uncharacterized protein DR_0644 (natural protein, Deinococcus radiodurans, UniProt Q9RWM2 20-206, looked up)
chain: GPTEGTYTLAPQAVVKPAGPVYAPAGTAKISETLGVTRTTITLTGMAPYAIYVAHYHKMGTAAPMGSAPATNTNMAMSSTDATATTTASTSTTSTDTTVAASTDMTTTVTMAPVTAAPNPCNSDGPAIMESRMIAQASADGKVTLTGIVPTALIRDAAYINVHHGRDFSGALADSGVICTPITMTMR
notes: uncharacterized protein DR_0644, Deinococcus radiodurans; the mature protein, fitted from the mature N-terminus Gly20 to the C-terminus Arg206, with an unstructured loop 82-133; Identified from the map density combined with structural modelling (rigid-body fit of an AlphaFold2 model); also called accessory protein; additional protein density; source: endogenous, D. radiodurans; present with the …

Key:
[1] = molecular target: the molecule itself; assay: cryo-EM structure; single-particle analysis of SlpA purified from D. radiodurans in detergent (20 mM HEPES/NaOH pH 7.5, 150 mM NaCl, 0.02 % DDM; 4.45 mg/mL); C3 symmetry; global resolution 3.25 Å
[2] = molecular target: B1; assay: as above; conditions: both partners purified

Row | Binder | stoichiometry N [1] | binding result [2]
1 | B1 | 3 | 
2 | B2 | 3 | binds
